Assay results as given in patent US20240350546A1 (TEXAS A AND M UNIVERSITY SYSTEM, published 2024).

Target: T1, CD26 on Rv-CD26-transduced Jurkat T cells (human, UniProt P27487 1-766)
T1 construct: whole, on cells; also called membrane CD26
Experiment: ADA membrane binding efficiency from ADA activity left in medium after 24 h co-culture; Rv-ADA-CD3-293T/CD26-Jurkat T as maximum, 293T/Jurkat T without CD26 as background
Protocol: Next, we investigated the binding efficacy of ADA-CD3 on T cells. Jurkat-Dual (NF-KB &IRF/IFN), Jurkat-Dual transduced with Rv-CD26 (Jurkat-Dual-CD26), Jurkat-NFAT or Jurkat-NFAT transduced with Rv-CD26 (Jurkat-NFAT-CD26) reporter cell lines were co-cultured with Rv-ADA or Rv-ADA-CD3 (scFv) transduced 293 T cells for 24 hours. The cell culture medium was then used to measure ADA by ADA activity assay. ADA membrane binding efficiency was calculated using Rv-ADA-CD3-293T/CD26-Jurkat T as maximum and 293T/JurkatT W/O CD26 as background.

T1 sequence (P27487 whole entry): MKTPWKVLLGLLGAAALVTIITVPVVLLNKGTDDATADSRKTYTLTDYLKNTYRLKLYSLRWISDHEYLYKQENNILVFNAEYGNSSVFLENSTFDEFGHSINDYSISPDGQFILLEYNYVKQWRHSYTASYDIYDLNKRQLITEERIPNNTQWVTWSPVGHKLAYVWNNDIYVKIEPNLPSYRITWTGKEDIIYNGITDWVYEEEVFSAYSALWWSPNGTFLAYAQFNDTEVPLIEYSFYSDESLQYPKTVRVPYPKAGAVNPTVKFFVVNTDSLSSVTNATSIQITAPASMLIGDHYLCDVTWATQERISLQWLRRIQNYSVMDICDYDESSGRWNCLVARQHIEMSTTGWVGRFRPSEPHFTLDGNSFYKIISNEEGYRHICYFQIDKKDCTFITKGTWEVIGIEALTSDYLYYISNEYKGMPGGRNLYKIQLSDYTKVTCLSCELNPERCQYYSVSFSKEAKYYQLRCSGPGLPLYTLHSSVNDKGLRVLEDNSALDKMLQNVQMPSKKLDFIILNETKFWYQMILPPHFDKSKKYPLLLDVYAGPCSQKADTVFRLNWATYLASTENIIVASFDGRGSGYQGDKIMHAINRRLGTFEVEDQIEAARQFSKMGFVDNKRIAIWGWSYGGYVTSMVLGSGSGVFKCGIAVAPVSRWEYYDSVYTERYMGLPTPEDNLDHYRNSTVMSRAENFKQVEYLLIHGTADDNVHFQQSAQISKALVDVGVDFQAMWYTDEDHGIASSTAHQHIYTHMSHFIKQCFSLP

ADA membrane binding efficiency (relative to secreted ADA-CD3): 40%
B1: secreted ADA (without CD3-scFv) (enzyme, human, UniProt P00813 1-363, looked up)
chain: MAQTPAFDKPKVELHVHLDGSIKPETILYYGRRRGIALPANTAEGLLNVIGMDKPLTLPDFLAKFDYYMPAIAGCREAIKRIAYEFVEMKAKEGVVYVEVRYSPHLLANSKVEPIPWNQAEGDLTPDEVVALVGQGLQEGERDFGVKARSILCCMRHQPNWSPKVVELCKKYQQQTVVAIDLAGDETIPGSSLLPGHVQAYQEAVKSGIHRTVHAGEVGSAEVVKEAVDILKTERLGHGYHTLEDQALYNRLRQENMHFEICPWSSYLTGAWKPDTEHAVIRLKNDQANYSLNTDDPLIFKSTLDTDYQMTKRDMGFTEEEFKRLNINAAKSSFLPEDEKRELLDLLYKAYGMPPSASAGQNL
notes: Secreted by Rv-ADA transduced 293 T cells in co-culture; also called ADA1; Rv-ADA
